Results reported in the DeepSol protein solubility set.

Test: soluble on expression in E. coli; label from the status in PepcDB or PDB records

Sequence | soluble on expression in E. coli
DKDVLEVKLDKKEYKAGETATALIQSPYADAELYFAVIKDKPIYQQITKVQGSAPQIQFRVTPEMLPNAAVEAVLVRQGKPINQVEVGSLDNLVKIGFTPFKVNLEDKYLKLQVKPAQASLEPGAEETIQLEVKDNQGNPTKGQLTVMVVNEAVLQLSGY | not soluble
MTSIDVTEIIKSSTSSLYQPARKKSRFDDSASSSSQAGQPKPEDILAALEADQSNYVALDDVQVKKLVIQLDKKMRLNREQRVKNPDDAQKFMESEIELDKAIQEMHSLASQPDLYGSFVEVNGVEILLQLLGHENTDIVCATLSLLRELTDDDVMNEGEDGAAELIESLVSGSIITTLLACVERLDESVKDEADGVHNALGVVDNMIGFRDDITEECVKHGFTVWLLKRCFQKGAFDANKMYASELLSVILQTSDTAKAKLTEKIDGIDILLRTIAVYKKNDPANVDEREYMENLFNSLCAALMHPANRKKFLDGEGLQLMNLMLREKKQARQSALKVLNHATSGDEGIENCNKLVEMLGLRTIFPLFMRTPSKTKRKDTTPDEHEEHVCTILSSLLAACSENHRQRIVQKFVEHEHEKVDRAVELFLKYKEKVQRFELKKKRQSQEAGTSEDDDPDRAYLDKLDNGLYTLQRLTLILGEVAVGVESARLREEKLFQMKMSQNRLDLMLCPIIQEYSDNLGDDANIEQERVLVMLSKIEDFYK | not soluble
DLVIIVDDERRIVDVNAAATALFDGDQNTLLGRSLPQASPTLAETVPGPGERTQTETALERDGSVRYYDVRVIPLYRAYGVVSGHLISLRD | not soluble
MDSDRLSSVEQFPDRGNNHVEEGSAIDYQRVPPLSGTHYASTVSAGFYEATPLLGSLVHTLEHGAVIVYYDPDEISPEARQSLREFSSVHTGTWRSVVAVPNPNDDPRATYVVTAWQHELTIDSYDAETVHAFLSEYLGRGPENPVRLEHHHHHH | not soluble
VTPELDEREQEVIVRSAINQFEGFIKLNKKIPPEVLTSLNGIDEAARLADTIAAHMPLKLVDKQQVLEIIDVTERLEFLMGQMESEIDLLQVEKRIRGRVKKQMEKSQREYYLNEQMKAIQKELGEMEDAPDEFETLQKKIDESKMPQEAREKTEQELQKLKMMSPMSAEATVVRSYIDWMVSVPWTKRSKVKKNLAKAEEILNEDHYGLERVKERILEYLAVQNRINKLKGPILCLVGPPGVGKTSLGRSIASATGRKYVRMALGGVRDEAEIRGHRRTYIGSLPGKLIQKMSKVGVKNPLFLLDEIDKMSSDMRGDPASALLEVLDPEQNNSFNDHYLEVDYDLSDVMFVATSNSMNIPGPLLDRMEVIRL | not soluble
MGSDKIHHHHHHMPRNLPPLYALRAFEAAARHTSFTRAAEELSITQSAVSRHIRTLEEHFACRLFQRNGRNLQLTESARTLLPGVRDGFLALERACSTLQTDEGVLRMKAPSTLTMRWLLARLSRFRHLQVGNEVQLTSAWMDIDAVDFTREPFDCAILLSQGHFPSDWEATLLFAELLIPVGAPTLSQDPPWDVERLAKAELLHPTPDRRDWRTWLNRMGLADQVSLKGGQVFDTLELGMIAAARGYGVSMGDLLMVAEDLAQSRLSLPWRTAVFSGENYYLVWPRTRPGAERLRRLSDFLQAEVKAMKLPLVEVLR | not soluble
MSVDKSPVYEVKAVPVEKVLANDYNPNVVAPPEMKLLELSIWEDGFTMPCVCYYNKEEDNYILVDGYHRYTVLKTSKRIYKRENGLLPIVVIDKDLSNRMSSTIRHNRARGMHN | soluble
SLSQIKVLIVDDARFIRDHVTRIVKEHFPEYQIDAAEDGDDGQKAMSKVDYDLILCDWEMPGKSGLELLTWARSQPHYADIPFVMVTEG | soluble
MEKKIEKVRQFYTALAQGDFETVGALLSDDLVWHQPGQGALSGTYNGKQNVFAHLERMAQLSNGTFAIDQVDYVTDNGNLVAAAIAFAVSANGHSIEMKGVDLFNFENGFIKKVWLFSERIEEESRFWTALAQGC | not soluble
MSLSPPILVGFSGPLTGVNSDLGVQGRNGAQLAIEHINAGGGINGRQLELLSMDDGPTAESARDADSALLRQGVVAIIGHMTSNQAIAGLPVVEQHGAVMIAPTVSTPLLTGKRDGFFRLMPDNDSWAYATADYALAQGLKTVSVIYETANQAFAGSFVDGFVTQFEAGGGRLLQRIPFTSAQRDTLEAAAIRAVSTNPDTIVLAASARDTAALAQFIDAHDSPRPVLLSSSWAYTREIFLAGGRAVEGIVFTISYLPDDTREGYLAFRKAYTERFGWEPNFAAALAYESAKVLAAALRRTGGRAQGLREALAAGTPVQGISETVTLDQYGDVQRPPYIVTIRNGEFVSIQEGHHHHHH | soluble
MRIDILTLFPGMFSGVLSESILKKAQEKGAVDIRLIDFREFADNKHKTVDDYPYGGGAGMVLKPQPIFDAVEHVTAGSPGARIILLCPQGERYTQKKAEELAKETHLVLICGHYEGYDERIRQYLATDEISIGDYILTGGELGAMVIVDSVVRLLPGVLGNEASPVDDSFSSGLLEYPQYTRPADFRGMKVPDILLSGNHQLIAEWREKESLRRTFLRRPDLLDEYPLTDKQKQWLKEWEKERE | soluble
MFPAQEEADRTVFVGNLEARVREEILYELFLQAGPLTKVTICKDREGKPKSFGFVCFKHPESVSYAIALLNGIRLYGRPINVQYRFGSSRSSEPANQSFESCVKINSHNYRNEEMLVGRSSFPMQYFPINNTSLPQEYFLFQKMQWHVYNPVLQLPYYEMTAPLPNSASVSSSLNHVPDLEAGPSSYKWTHQQPSDSDLYQMTAPLPNSASVSSSLNHVPDLEAGPSSYKWTHQQPSDSDLYQMNKRKRQKQTSDSDSSTDNNRGNECSQKFRKSKKKKRY | soluble
MAEETIFSKIIRREIPSDIVYQDDLVTAFRDISPQAPTHILIIPNILIPTVNDVSAEHEQALGRMITVAAKIAEQEGIAEDGYRLIMNTNRHGGQEVYHIHMHLLGGRPLGPMLAHKGL | soluble
KTLPRDEKEKQIADSKERLKSDTQKVKDAKNADAIKKAFEEGKVNIPQAHIPGDLNKDKEKLLAELKQKADDTEKAIDVDKT | not soluble
MGSDKIHHHHHHMSTEHQLLVGLLKKLKDDALVLPTLPEVAMRVQEVVSRQDSSLKQVADIIGQDAAISARIIKVANSALYSRGNKAESINAAVSRIGLVQIKSITTSVAMEQLFISTNEMVWEVMDEVWKTSIEVTASSCAMLEMYNKRHPTKKLDRDTLTLAGLVHNIGALPVLTEAEVHPELFGRIDDLRSLVRKMQGPIGRAVLKTWDFAPEVMEVVERWADLHYLPEKVTYLDFIRSAAFYTGELRAGEELEERLGVFAQRGLPVTPEDLASDEFINMYHSIMQSYE | not soluble
MSLEEILIIDDSRQIADFLAETVLPYYGYRSRVVPTGWEGLAFLKQRQPDLILLDLQLPDTSGLDVLRQMGELGYDIPVILMTAHGTEQTAVEAFRLGAKNYLIKPFDASEAGAAIERALRERRLQREKEVLTRTLQQRLQELTILSSVGKSVTSLLDLEELLERIVDAGVYLTHAEEGYLLLRDGDELYLRAAKNLGEERVQRFRVKMDDNVAGQVIRTVKPIRLDRSQHQDLKLRTGLLVQAMLQVPLIVGRHAIGVLAVDNRVQQRTFSENDQYLLSAIADYAAIAIENSREGHHHHHH | soluble
MAHHHHHHMTETTGARGRRTFMGRRRSQHEVQTEASFVPGCSSLEYAYDPLASEQYANLVELRQMIHSCLTLVAGDVYDVVSFKDILYHLESEMPSSLPVTDLLLLSSRLFRRTAELGRLLSCFFGVVFADDRNDEHFRFAEVRLLQREIRELKRQLSASEEERRRLKEMLDNVGQVAYDHGRAVELLETHNKVLKKQSTALEDQMALLFHQLNTGLEGHCKSAYQQVTGEMMVQESLNPARITFRQTMDSLSEQLRGSRGLITDVREVLLSCSQGRRTGEAYAAVEPTVRFKLKMLEANFQQLMGRFTAVKDTVVETAQELMNALQERKKILCLSFQHIRLYDLQNAKLRNARAILAQLQHNTSEVVRRIRVTFPSGNLTSVDRFGNIRTQRWHGGYTLATLRGYNLTEQQQQGEGEMSEVARSSTAVPSLTAGASRTLPGLTESQIMAAESEMAVIDGGVHSVTPVGLALSPGFRSMRASHSGVSPPPLRTSVPPSRGGSKLASARGSSSTTGMPAPVSAPTSVRSDDPDVLPFESVSTFVDLMHDIHDDMDELQSALVLDDEMAAFLKVLTLSASTTPRADALEIAGDPTGRAALLERQEYNMETALQPTGGRPGGTRGAPSSASVVSGNESITALEANSFSSLFSKMGTPSTSSEARGGARAENASSEAVMARQAVQLQRQQKQIAKMQEDFTSKVGFLRQVYEARIGDLEVRETTVSKRLGLVGGSAFQRGAGDGGSGRSSPGVRKGEDESPVSSSPGDKERLTKLRKEWRQSKRKLQPNRKLREATAEQLQLMQKDEKL | not soluble
MHKNGNNGPVIDTKWHYLGPDSEKYGPYMSKDMLFWLQAGYFNDGLQLKTENEPNYHTLGEWSQLLGTHPFSMPVHSLDATIAQMNSMRPHGAMMMVPPGLQNQFQPPMPMRFPPFLPMPLLHQMNQNGPPMGAQMHSQPPSEPIDAGSLSHTPDSENETRLNEQTLQQPPSWLIALGLAGHGRKPHHHQQILAHQHIPQMQHANVATDQVVMKSVECQTEPVEISKEQASRVLSELLGQMVIIN | not soluble
MTTFSHSSTTPSVSVTTASGNNQSQLVATPVPDEQRISFWPQHFGLIPQWVTLEPRVFGWMDRLCEDYCGGIWNLYTLNNGGAFIAPEPDEDDGETWILFNAMNGNRAEMSPEAAGIAACLMTYSHHACRTECYAMTVHYYRLRDYALQHPECSAIMRIID | not soluble
MGHHHHHHSHVFDRPDLGDQAILVSLDFGDADYQESVAECAELVRGSKVEILGMVQGKRQRPDAALFAGKGKVEEIASMVRATGANVVIFNHALSPGQERNLERALQCRVIDRNSLILDIFAQRARSHEGKLQVELAQLSHLSTRLVRGWTHLERQKGGVGLRGPGETQLETDRRLLGIRVKALKDRLAQVQKQRNTQRRSRNRAGVSSVSIVGYTNAGKSTLFNALTKANIYAADQLFATLDTTSRKLFLNHDCSVVLSDTVGFIRDLPHTLVAAFRATLEETVQANLLLHVVDCANETRDAQIDEVNKVLAEIDADGIPQLIVWNKGDLRELPPEIERDEDGVAVAVRVSALKGEGLELLREAIAERVQPFANNHKEPYEHVAE | soluble
PEKKKRKRGSRGGKKGRKSRIANIPNFEQSLKNLVVSEKILGYGSSGTVVFQGSFQGRPVAVKRMLIDFCDIALMEIKLLTESDDHPNVIRYYCSETTDRFLYIALELCNLNLQDLVESKNVSDENLKLQKEYNPISLLRQIASGVAHLHSLKIIHRDLKPQNILVSTSSRFTADQQTGAENLRILISDFGLCKKLDSGQSSFRTNLNNPSGTSGWRAPELLEESTKRRLTRSIDIFSMGCVFYYILSKGKHPFGDKYSRESNIIRGIFSLDEMKCLHDRSLIAEATDLISQMIDHDPLKRPTAMKVLRHPLFWPKSKKLEFLLKVSDRLEIENRDPPSALLMKFDAGSDFVIPSGDWTVKFDKTFMDNLERYRKYHSSKLMDLLRALRNKYHHFMDLPEDIAELMGPVPDGFYDYFTKRFPNLLIGVYMIVKENLSDDQILREFLYS | soluble
MVEEAERIALISHTAPDGDSVGSSIGFAAMLREKGKSHISVIVPDDIPQYLYCIPGANKVIVHETHPSEAEKALAEADLVFCMDFNAPHRVAGLQSALESSSAPKVLIDHHLYPADIFTLSFSYPPLSSTSELVLRLAKAIGMESYLTQDAATALMTGILTDTGVFSYSSSDPDLYLLVADLMRAGADKDTIIRNTFQQNSEGKMRMQGYVLYEKMTLLPEMGVAYFTLSAEELVRFHNRTGDTDGLANLPLDIAGIEAVCFLREDKNQIKLSFRSTGNYPVNTLAENFGGGGHKNAAGGEFQGSLQEATEKLLKIWKDFNPKNYNNKNQQLEHHHHHH | soluble
